Read-outs that look alike come from different tables or passages of the source.
T1: Human IL-18 (human, UniProt Q14116 37-193)
T1 sequence: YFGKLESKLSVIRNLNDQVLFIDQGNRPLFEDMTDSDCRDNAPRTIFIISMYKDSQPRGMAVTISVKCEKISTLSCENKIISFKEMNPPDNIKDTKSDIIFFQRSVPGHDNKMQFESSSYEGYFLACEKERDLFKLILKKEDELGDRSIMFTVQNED

T2: Cynomolgus monkey IL-18 (Rhesus monkey (identical to cynomolgus …, UniProt Q9BGI5 37-193))
T2 sequence: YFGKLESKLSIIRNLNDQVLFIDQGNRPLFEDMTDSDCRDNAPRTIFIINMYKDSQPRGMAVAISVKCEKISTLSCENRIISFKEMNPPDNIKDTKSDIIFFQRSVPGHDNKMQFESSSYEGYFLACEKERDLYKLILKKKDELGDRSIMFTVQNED

T3: Human IL-23 (human, UniProt Q9NPF7 20-189; P29460 23-328)
T3 sequence 1: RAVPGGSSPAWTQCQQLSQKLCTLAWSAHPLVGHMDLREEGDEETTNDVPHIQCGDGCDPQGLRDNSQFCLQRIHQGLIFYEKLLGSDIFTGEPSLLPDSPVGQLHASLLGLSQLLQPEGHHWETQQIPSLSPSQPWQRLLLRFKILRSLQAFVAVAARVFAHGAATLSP
T3 sequence 2: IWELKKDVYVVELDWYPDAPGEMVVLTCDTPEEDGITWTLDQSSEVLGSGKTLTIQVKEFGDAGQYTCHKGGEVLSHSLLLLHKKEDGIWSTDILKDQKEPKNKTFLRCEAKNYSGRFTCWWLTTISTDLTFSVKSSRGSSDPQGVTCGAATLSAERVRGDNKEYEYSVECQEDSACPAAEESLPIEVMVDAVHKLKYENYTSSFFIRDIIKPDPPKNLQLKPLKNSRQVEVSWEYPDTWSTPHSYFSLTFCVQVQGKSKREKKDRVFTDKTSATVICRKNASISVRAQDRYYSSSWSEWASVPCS

B1: IL-18 control 2 (antibody, V domains shown)
VH: QVQLVQSGAEVKKPGASVKVSCKVSGEISTGYYFHWVRQAPGKGLEWMGRIDPEDDSTKYAERFKDRVTMTEDTSTDTAYMELSSLRSEDTAVYYCTTWRIYRDSSGRPFYVMDAWGQGTLVTVSS
VL: DIQMTQSPSSVSASVGDRVTITCLASEDIYTYLTWYQQKPGKAPKLLIYGANKLQDGVPSRFSGSGSGTDYTLTISSLQPEDFATYYCLQGSKFPLTFGQGTKLEIK
B2: Heterodimeric bsAb 1 (bispecific antibody, human IgG1, kappa)
heavy 1: QVQLVQSGAEVKKPGASVKVSCKVSGEISTGYYFHWVRQAPGKGLEWMGRIDPEDDSTKYAERFKDRVTMTEDTSTDTAYMELSSLRSEDTAVYYCTTWRIYRDSSGRPFYVMDAWGQGTLVTVSSASTKGPSVFPLAPSSKSTSGGTAALGCEVTDYFPEPVTVSWNSGALTSGVHTFPAVLESSGLYSLSSVVTVPSSSLGTQTYICNVNHKPSNTKVDKKVEPKSCDKTHTCPPCPAPELAGAPSVFLFPPKPKDTLMISRTPEVTCVVVDVSHEDPEVKFNWYVDGVEVHNAKTKPREEQYNSTYRVVSVLTVLHQDWLNGKEYKCKVSNKALPAPIEKTISKAKGQPREPQVYVYPPSRDELTKNQVSLTCLVKGFYPSDIAVEWESNGQPENNYKTTPPVLDSDGSFALVSKLTVDKSRWQQGNVFSCSVMHEALHNHYTQKSLSLSPGK
light 1: DIQMTQSPSSVSASVGDRVTITCLASEDIYTYLTWYQQKPGKAPKLLIYGANKLQDGVPSRFSGSGSGTDYTLTISSLQPEDFATYYCLQGSKFPLTFGQGTKLEIKRTVAAPSVFIFPPSDERLKSGTASVVCLLNNFYPREAKVQWKVDNALQSGNSQESVTEQDSKDSTYSLSSRLTLSKADYEKHKVYACEVTHQGLSSPVTKSFNRGEC
heavy 2: QVQLVQSGAEVKKPGSSVKVSCKASGYTFTDQTIHWMRQAPGQGLEWIGYIYPRDDSPKYNENFKGKVTITADKSTSTAYMELSSLRSEDTAVYYCAIPDRSGYAWFIYWGQGTLVTVSSASTKGPSVFPLAPSSKSTSGGTAALGCRVKDYFPEPVTVSWNSGALTSGVHTFPAVLQSSGLYSLSSVVTVPSSSLGTQTYICNVNHKPSNTKVDKKVEPKSCDKTHTCPPCPAPELAGAPSVFLFPPKPKDTLMISRTPEVTCVVVDVSHEDPEVKFNWYVDGVEVHNAKTKPREEQYNSTYRVVSVLTVLHQDWLNGKEYKCKVSNKALPAPIEKTISKAKGQPREPQVYVLPPSRDELTKNQVSLLCLVKGFYPSDIAVEWESNGQPENNYLTWPPVLDSDGSFFLYSKLTVDKSRWQQGNVFSCSVMHEALHNHYTQKSLSLSPGK
light 2: DIQMTQSPSSLSASVGDRVTITCKASRDVAIAVAWYQQKPGKVPKLLIYWASTRHTGVPSRFSGSGSRTDFTLTISSLQPEDVADYFCHQYSSYPFTFGSGTKLEIKRTVAAPSVFIFPPSDEELKSGTASVECLLNNFYPREAKVQWKVDNALQSGNSQESVTEQDSKDSTYSLSSTLTLSKADYEKHKVYACEVTHQGLSSPVTKSFNRGEC
notes: Het-mAb format: anti-IL-18 mAb on ZA and anti-IL-23 mAb (risankizumab) on ZB, with Fc heterodimerisation and silencing mutations; Expressed transiently in HEK293 6E cells
B3: Heterodimeric bsAb 2 (bispecific antibody, human IgG1, kappa)
heavy 1: QVQLVQSGAEVKKPGSSVKVSCKASGYTFTDQTIHWMRQAPGQGLEWIGYIYPRDDSPKYNENFKGKVTITADKSTSTAYMELSSLRSEDTAVYYCAIPDRSGYAWFIYWGQGTLVTVSSASTKGPSVFPLAPSSKSTSGGTAALGCRVKDYFPEPVTVSWNSGALTSGVHTFPAVLQSSGLYSLSSVVTVPSSSLGTQTYICNVNHKPSNTKVDKKVEPKSCDKTHTCPPCP
light 1: DIQMTQSPSSLSASVGDRVTITCKASRDVAIAVAWYQQKPGKVPKLLIYWASTRHTGVPSRFSGSGSRTDFTLTISSLQPEDVADYFCHQYSSYPFTFGSGTKLEIKRTVAAPSVFIFPPSDEELKSGTASVECLLNNFYPREAKVQWKVDNALQSGNSQESVTEQDSKDSTYSLSSTLTLSKADYEKHKVYACEVTHQGLSSPVTKSFNRGEC
heavy 2: QVQLVQSGAEVKKPGASVKVSCKVSGEISTGYYFHWVRQAPGKGLEWMGRIDPEDDSTKYAERFKDRVTMTEDTSTDTAYMELSSLRSEDTAVYYCTTWRIYRDSSGRPFYVMDAWGQGTLVTVSSASTKGPSVFPLAPSSKSTSGGTAALGCEVTDYFPEPVTVSWNSGALTSGVHTFPAVLESSGLYSLSSVVTVPSSSLGTQTYICNVNHKPSNTKVDKKVEPKSCDKTHTCPPCPAPELAGAPSVFLFPPKPKDTLMISRTPEVTCVVVDVSHEDPEVKFNWYVDGVEVHNAKTKPREEQYNSTYRVVSVLTVLHQDWLNGKEYKCKVSNKALPAPIEKTISKAKGQPREPQVYVLPPSRDELTKNQVSLLCLVKGFYPSDIAVEWESNGQPENNYLTWPPVLDSDGSFFLYSKLTVDKSRWQQGNVFSCSVMHEALHNHYTQKSLSLSPGK
light 2: DIQMTQSPSSVSASVGDRVTITCLASEDIYTYLTWYQQKPGKAPKLLIYGANKLQDGVPSRFSGSGSGTDYTLTISSLQPEDFATYYCLQGSKFPLTFGQGTKLEIKRTVAAPSVFIFPPSDERLKSGTASVVCLLNNFYPREAKVQWKVDNALQSGNSQESVTEQDSKDSTYSLSSRLTLSKADYEKHKVYACEVTHQGLSSPVTKSFNRGEC
notes: Het-mAb format: anti-IL-23 mAb (risankizumab) on ZA and anti-IL-18 mAb on ZB, with Fc heterodimerisation and silencing mutations

Legend:
[1] = target: T1, Human IL-18; experiment: cell-based or functional assay
[2] = target: T2, Cynomolgus monkey IL-18; experiment: cell-based or functional assay
[3] = target: T1, Human IL-18; experiment: cell-based or functional assay; remark: listed apart in the source
[4] = target: T1, Human IL-18; experiment: cell-based or functional assay; remark: listed apart in the source
[5] = target: T3, Human IL-23; experiment: cell-based or functional assay
[6] = target: T3, Human IL-23; experiment: cell-based or functional assay; remark: listed apart in the source
[7] = target: T1, Human IL-18; experiment: SPR (Biacore), antibody captured on Protein A/G, cytokine as analyte, 25 C, 1:1 fit, n=1
Protocol: (§1) A heterodimeric bsAb, alongside anti-IL-18 and anti-IL-23 common light chain control bispecific antibodies, were assessed for binding to human and cyno IL-18 and IL-23, using the Biacore 8K and T200 (Cytiva) surface plasmon resonance (SPR) instruments. All reagents were generated recombinantly in-house with the exception of Rhesus monkey IL-18 which was purchased from R&D systems (Cat #2548-RM-025/CF). Rhesus and cynomolgus monkey amino acid sequences are identical. Therefore, the protein will be referred to as cynomolgus monkey IL-18.
(§2) Heterodimeric bsAb, anti-IL-18 and anti-IL-23 common light chain bispecific control molecules were assessed for binding to recombinant human and cynomolgus monkey IL-18 and IL-23 using the Biacore 8K and T200 (Cytiva) SPR instruments. The antibodies were captured onto Protein A/G, which was immobilised onto flow cell 2 of 8 channels (Biacore 8K) or flow cells 2, 3 and 4 (Biacore T200) of a CM5 series S sensor chip by primary amine coupling. The IL-18 or IL-23 analytes were passed over the captured antibodies at varying concentrations between 0.04-25 nM. The association phase was for 240 seconds at 30 μl/min, followed by a dissociation step of up to 1200 seconds. A 0 nM (i.e., buffer alone) injection was used to double reference the binding curves. Regeneration of the chip surface between cycles was carried out using 50 mM NaOH. The assay was run at 25° C. in HBS-EP⁺ buffer. Biacore 8K control software version 3.0 was used to run the experiment. Data was analysed using Biacore 8K Insight evaluation software version 3.0. Biacore T200 control software version 1.0 was used to run the experiment. Data was analysed using Biacore T200 evaluation software version 2.0. Affinities and kinetics were determined using the 1:1 kinetic fit inherent to the software where possible. All affinity values generated using both instruments were combined to determine geometric mean values.

[8] = target: T3, Human IL-23; experiment: as above
Protocol: as §1, §2

| Binder | IC50 (pM, Mean), neutralisation of human IL-18-induced IFNγ secretion by KG-1 cells [1] [pM] | pIC50 (GeoMean), neutralisation of human IL-18-induced IFNγ secretion by KG-1 cells [1] | IC50 (pM, Mean), neutralisation of cynomolgus IL-18-induced IFNγ secretion by KG-1 cells [2] [pM] | pIC50 (GeoMean), neutralisation of cynomolgus IL-18-induced IFNγ secretion by KG-1 cells [2] | IC50 (pM, Mean), neutralisation of human IL-18-induced IFNγ secretion by KG-1 cells [3] [pM] | pIC50 (GeoMean), neutralisation of human IL-18-induced IFNγ secretion by KG-1 cells [3] | IC50 Heterodimeric bsAbs (% of Parent IL-18 control 3), LPS + IL12-induced IFN-γ in human whole blood [4] | IC50 Heterodimeric bsAbs (nM), inhibition of LPS + IL12-induced IFN-γ in human whole blood [4] [nM] | IC50 Heterodimeric bsAbs (% of Parent IL-23 control 2), IL-23-induced pSTAT3 in T cells of human whole blood [5] | IC50 Heterodimeric bsAbs (pM), inhibition of IL-23-induced pSTAT3 in CD3+CD161+ T cells of human whole blood [5] [pM] | IC50 Heterodimeric bsAb (% of Parent IL-23 control 2), IL-23-induced mouse IL-17A in mouse splenocytes [6] | IC50 Heterodimeric bsAb (pM), inhibition of human IL-23-induced mouse IL-17A secretion in mouse splenocytes [6] [pM] | Kd [7] [nM] | Kd [8] [nM] |
| --- | --- | --- | --- | --- | --- | --- | --- | --- | --- | --- | --- | --- | --- | --- |
| B1 | 41 | 10.4 | 64.6 | 10.2 | 39.8 | 10.4 | – | – | – | – | – | – | – | – |
| B2 | 133 | 9.88 | – | – | – | – | 191 % of Parent | 16 | 218 % of Parent | 615 | 254 % of Parent | 153 | < 0.01 | 0.374 |
| B3 | 77.6 | 10.1 | – | – | – | – | 240 % of Parent | 18.2 | 249 % of Parent | 711 | 274 % of Parent | 147 | < 0.01 | 0.158 |
